In paper PMC8428117, “Y chromosomal noncoding RNAs regulate autosomal gene expression via piRNAs in mouse testis”:

Target: MIWI (mouse homologue of PIWI) (UniProt Q9JMB7 1-862)
Experiment: EMSA; shift abolished by MIWI antibody, not by Argonaute 3 antibody; competed by cold piR1; 20 mM HEPES (pH not stated), 3 mM MgCl2, 40 mM KCl, 5% glycerol, 2 mM DTT, 4 U RNase inhibitor; 5 ug MIWI in 25 ul; on ice, 30 min with probe (competitor/antibody 1 h before); 5% native PAGE
Settings: protein: recombinant; tags: FLAG; label: 32P end label

Sequence of MIWI (mouse homologue of PIWI) (Q9JMB7 whole entry): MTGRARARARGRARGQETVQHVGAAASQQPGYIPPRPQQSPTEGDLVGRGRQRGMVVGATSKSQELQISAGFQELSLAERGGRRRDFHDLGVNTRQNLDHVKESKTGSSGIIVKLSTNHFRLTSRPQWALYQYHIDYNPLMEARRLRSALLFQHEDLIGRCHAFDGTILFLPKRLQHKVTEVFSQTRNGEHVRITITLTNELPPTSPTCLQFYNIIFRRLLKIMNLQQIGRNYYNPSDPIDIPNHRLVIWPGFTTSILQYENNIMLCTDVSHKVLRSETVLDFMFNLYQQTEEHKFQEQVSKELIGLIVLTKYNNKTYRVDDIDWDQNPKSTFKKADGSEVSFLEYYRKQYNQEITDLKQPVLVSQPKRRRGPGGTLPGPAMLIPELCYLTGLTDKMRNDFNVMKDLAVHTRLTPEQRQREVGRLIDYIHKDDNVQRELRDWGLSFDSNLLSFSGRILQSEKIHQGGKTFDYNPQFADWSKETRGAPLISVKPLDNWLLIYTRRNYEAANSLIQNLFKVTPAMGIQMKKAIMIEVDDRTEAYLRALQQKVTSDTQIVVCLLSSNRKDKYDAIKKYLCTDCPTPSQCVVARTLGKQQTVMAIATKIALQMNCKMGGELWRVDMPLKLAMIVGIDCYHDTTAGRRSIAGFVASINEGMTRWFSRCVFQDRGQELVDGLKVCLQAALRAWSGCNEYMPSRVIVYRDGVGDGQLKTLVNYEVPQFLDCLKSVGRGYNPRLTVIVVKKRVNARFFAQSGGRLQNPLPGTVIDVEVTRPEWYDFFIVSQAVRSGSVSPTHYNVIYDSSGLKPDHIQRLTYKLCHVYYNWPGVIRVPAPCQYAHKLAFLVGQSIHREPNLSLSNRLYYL

B1: Sod oligo (FJ541118) (ssRNA)
RNA: GAAGCAGAUGAGUAUAUG
- binding result: binds

B2: spot A4 oligo (FJ541077) (ssRNA)
RNA: UCAUUGGACAUAAACUGAAUUUUCCA
- binding result: binds
